These results are taken from patent US20220204611A1 (Amgen, published 2022).

Test [1] concerns the target T1, recombinant soluble human TREM2 protein (human TREM2 ECD-FlagHis) (human, UniProt Q9NZC2 19-174).
T1 sequence: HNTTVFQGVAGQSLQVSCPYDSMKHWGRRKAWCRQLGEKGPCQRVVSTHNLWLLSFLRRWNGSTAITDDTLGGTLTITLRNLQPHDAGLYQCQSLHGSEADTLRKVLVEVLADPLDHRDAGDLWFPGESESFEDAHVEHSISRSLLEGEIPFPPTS
In words: Octet BLI binning; competitor: load Ab 25F12. The method, then:
(§1) Each of sixteen different anti-TREM2 antibodies produced from hybridomas were quantitated and loaded onto one of the anti-human Fc sensors at 5 μg/mL for 2 minutes (“Load Antibody”). The sensor was then blocked with 100 μg/mL of an irrelevant human IgG2 antibody for 5 minutes. […] Next, each of the sixteen different anti-TREM2 antibodies (“Sandwich Antibody”) was added to the sensor at 5 μg/mL and allowed to bind for 5 minutes. All assay buffers contained 10 mM Tris (pH 7.6), 0.1% Triton X-100, 150 mM NaCl, 1 mM CaCl₂, and 1 mg/mL BSA. The assay was conducted at 25° C. Experimental kinetic results were fit to a 1:1 binding model.
(§2) However, if addition of the sandwich antibody produces a binding event, then the sandwich antibody binds to a different epitope on human TREM2 than the load antibody and the two antibodies are categorized into different epitope bins.

Test [2] deals with T1, recombinant soluble human TREM2 protein …. In words: Octet BLI binning; competitor: load Ab 26F2. As for the experimental part:
as §1, §2

Test [3] concerns the target T2, soluble human TREM2 protein (TREM2 ECD-huIgG1 Fc fusion protein) (human, UniProt Q9NZC2 19-174, biotinylated).
T2 construct: also called biotinylated soluble human TREM2 protein
T2 sequence: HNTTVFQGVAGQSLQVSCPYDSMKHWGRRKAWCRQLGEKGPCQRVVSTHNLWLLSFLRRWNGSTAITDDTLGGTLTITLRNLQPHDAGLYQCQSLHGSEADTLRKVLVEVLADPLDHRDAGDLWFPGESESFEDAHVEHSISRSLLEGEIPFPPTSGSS
In words: ELISA, hybridoma supernatant on captured biotinylated TREM2 ECD-Fc. As for the experimental part: Exhausted hybridoma supernatants were tested for binding to human TREM2 by ELISA. Briefly, neutravidin plates were generated by incubating a 384 well Corning Assay Plate 3702 with neutravidin (Thermo 3100B) at 10 μg/mL (40 μL/well) in 1× PBS at 4° C. overnight. The plates were washed with 1× PBS using a Biotek plate washer and then blocked with 1% milk/1× PBS (90 μL/well) at room temperature (RT) for 30 minutes. The plates were then washed again with 1× PBS using the plate washer. […] The plates were then incubated at RT for 1 hour to immobilize the TREM2 protein to the wells of the plates. Following the incubation, the plates were again washed with 1× PBS using the plate washer. 10 μL of each hybridoma supernatant to be tested and 40 μL of 1% milk/1× PBS (1:5 dilution) were added to each well of the plates and incubated at RT for 1 hour. Again, the plates were washed with 1× PBS using the plate washer. […] After the plates were washed with 1× PBS using the plate washer, 40 μL/well of TMB substrate (Neogen, lot #150114) was added to the plates and the plates were incubated at RT for 30 minutes. The reaction was quenched with 1N hydrochloric acid (40 uL/well) following the incubation period. OD readings at 450 nm were obtained with a plate reader.

The target in test [4] is T1, recombinant soluble human TREM2 protein …. In words: Octet BLI binning; competitor: load Ab 6E7. The method, then: as §1, §2
Test [5] has as its target T3, human TREM2 on cells (human, UniProt Q9NZC2 19-230).
T3 sequence: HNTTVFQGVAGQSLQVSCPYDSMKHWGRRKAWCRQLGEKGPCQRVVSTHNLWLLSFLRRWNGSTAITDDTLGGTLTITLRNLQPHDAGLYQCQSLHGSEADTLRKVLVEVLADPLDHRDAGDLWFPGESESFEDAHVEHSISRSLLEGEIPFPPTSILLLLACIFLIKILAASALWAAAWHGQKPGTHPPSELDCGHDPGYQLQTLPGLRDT
In words: cell-based or functional assay.

In test [6] the target is T1, recombinant soluble human TREM2 protein …. In words: Octet BLI binning; competitor: load Ab 26A10. As for the experimental part:
as §1, §2

Test [7] has the same target. In words: Octet BLI binning; competitor: load Ab 32E3. The method, then:
as §1, §2

Test [8] has the same target. In words: Octet BLI binning; competitor: load Ab 24G6. As for the experimental part: as §1, §2
For test [9] the target is unchanged. Description: Octet BLI binning; competitor: load Ab 13E7. As for the experimental part:
as §1, §2

Test [10] shares this target. Description: Octet BLI binning; competitor: load Ab 5E3. As for the experimental part: as §1, §2
Test [11] has the same target. In words: Octet BLI binning; competitor: load Ab 26C10. As for the experimental part: as §1, §2
Test [12] addresses T3, human TREM2 on cells. In words: cell-based or functional assay. The source holds these as a separate data set.
The target in test [13] is T1, recombinant soluble human TREM2 protein …. In words: Octet BLI binning; competitor: load Ab 24A10. The method, then:
as §1, §2

Test [14] has the same target. In words: Octet BLI binning; competitor: load Ab 10E3. The method, then:
as §1, §2

Test [15] has the same target. In words: Octet BLI binning; competitor: load Ab 16B8. The method, then: as §1, §2
Test [16] shares this target. In words: Octet BLI binning; competitor: load Ab 24F4. As for the experimental part: as §1, §2
Test [17] shares this target. Description: Octet BLI binning; competitor: load Ab 33B12. As for the experimental part: as §1, §2

B1: 33B12 (antibody, V domains shown)
VH: EVQLVESGGALVQPGGSLRLSCAASGFTFSSFGMSWVRQAPGKGLEWVSYISKSSFTIYYADSVKGRFTISRDNAKNSFYLQMNSLRDEDTAVYYCAREGGLTMVRGVSSYGLDVWGQGTTVTVSS
VL: not shown
notes: human IgG2 from hybridoma
As for B1, the sandwich binding signal in test [1] worked out at 0.345; in [2], 0.002; in [4], 0.52; in test [6], 0.023; in [7], 0.384; in test [8], 0.388. For the same molecule, the sandwich binding signal in test [9] is 0.287; in test [10], -0.015; in [11], -0.009; in test [13], 0.47; in test [14] it was 0.271; in test [15] it was -0.017. Further, the sandwich binding signal in [16] was 0.454. In addition, the “OD 450” value in test [3] worked out at 1.34 OD450. Further, the “Emax (% maximum activation compared to RnD antibody)” value in test [5] was determined as 246%. Besides, the “pSyk EC50, differentiated THP-1 cells” value in [5] turned out to be 2.85 nM. For the same molecule, in test [12], the “pSyk EC50” value is 1 nM.

B2: 26C10 (antibody, human IgG2, V domains shown)
VH: EVQLVESGGALVQPGGSLRLSCAASGFTFSSFGMSWVRQAPGKGLEWVSYISSSSFTIYYADSVKGRFTISRDNAKNSFYLQMNSLRDEDTAVYFCVREGGITMVRGVSSYGMDVWGQGTTVTVSS
VL: SFELTQPPSVSVSPGQTASITCSGDKLGDKYVCWYQQKPGQSPMLVIYQDTKRPSGIPERFSGSNSGNTATLTISGTQAMDEADYYCQAWDSSTVVFGGGTKLTVL
notes: human IgG2 from hybridoma
With B2, the sandwich binding signal in [1] is 0.418; in test [2] it was -0.015; in [4], 0.594; in test [7] it was 0.419; in [8] it was 0.384; in [9] it was 0.323. Also, the sandwich binding signal in [17] is -0.033; in [10], -0.042; in test [11] it was -0.032; in test [13], 0.541; in test [14], 0.285; in test [15] it was -0.031. Also, the sandwich binding signal in test [16] was 0.552. Also, the “OD 450” value in [3] came out at 1.59 OD450. Besides, the “pSyk EC50” value in test [12] worked out at 2.2 nM.

B3: 16B8 (antibody, human IgG4, V domains shown)
VH: QVQLVQSGAEVKKPGASVKVSCKASGYTFTNYGISWVRQAPGQGLEWMGWISAYNGNTNYAQKLQGRVTMTTDTSTSTVYMELRSLRSDDTAVYYCARRGYSYGSFDYWGQGTLVTVSS
VL: DIQMTQSPSSVSASVGDRVTVTCRASQDINSWLAWYQQKPGKAPKLLIYAASSLQTGVPSRFSGSGSGTDFTLTISSLQPEDFATYSCQQSNSFPITFGQGTRLEIK
notes: human IgG4 (G4) from hybridoma
B3: the sandwich binding signal in test [1] came out at 0.399; in test [2], 0.031; in [4], 0.504; in test [6] it was 0.028; in test [7], 0.4; in test [8] it was 0.369. For the same molecule, the sandwich binding signal in test [9] is 0.312; in test [17] it was 0.007; in test [10], -0.004; in [11] it was 0.006; in test [13], 0.423; in [14] it was 0.28. The sandwich binding signal in [15] is -0.009; in test [16] it was 0.454. Moreover, the “OD 450” value in test [3] came to 0.59 OD450. Moreover, the “Emax (% maximum activation compared to RnD antibody)” value in test [5] amounted to 140%. The “pSyk EC50, differentiated THP-1 cells” value in [5] is 0.418 nM.

B4: 24F4 (antibody, human IgG2, V domains shown)
VH: EVQLVQSGAEVKKPGESLKISCKGSGYTFTSYWIGWVRQMPGKGLEWMGIIYPGDSDTRYSPSFQGQVTISVDKSSSTAYLQWSSLKASDTAIYYCTRQAIAVTGLGGFDPWGQGTLVTVSS
VL: EIVLTQSPGTLSLSPGERATLSCRASQSVSSSYLAWYQQKPGQAPRLLIYGASSRATGIPDRFSGSGSGTDFTLTISRLEPEDFALYYCQQYDTSPFTFGPGTKVDIK
notes: human IgG2 from hybridoma
For B4, the sandwich binding signal in [1] is 0.244; in test [2], 0.282; in test [4] it was -0.039; in test [6], 0.319; in test [7], -0.001; in test [8], 0.251. The sandwich binding signal in test [9] was -0.015; in [17] it was 0.25; in test [10], 0.311; in test [11], 0.346; in test [13], 0.335; in test [14] it was -0.032. Moreover, the sandwich binding signal was determined as 0.27 in test [15] and 0.038 in test [16]. Besides, the “pSyk EC50” value in test [12] was 2.4 nM.

B5: 14C12 (antibody, human IgG2, V domains shown)
VH: EVQLVQSGAEVKKPGESLMISCKGSGYSFTSYWIGWVRQMPGKGLEWMGIIYPGDSDTRYSPSFQGQVTISADKSISTAYLQWSSLKASDTAMYFCARRRQGIWGDALDFWGQGTLVTVSS
VL: EIVMTQSPATLSVSPGERATLSCRASQSVSSNLAWFQQKPGQAPRLLIYGASTRATGIPARFSVSGSGTEFTLTISSLQSEDFAVYYCLQDNNWPPTFGPGTKVDIK
notes: human IgG2 from hybridoma
As to B5, the “OD 450” value in test [3] is 0.71 OD450. Further, in test [12], the “pSyk EC50” value stood at 0.4 nM.
